Data on 17 sequences can be found in the supplement of paper PMC9170038.

The data set concerns MS2 coat protein. Description: apparent KD of MS2 coat protein; higher = weaker reporter binding. As to conditions: Eterna round: R107. The method, then:
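RNA-MaP round R107: designed RNA switches with theophylline, tryptophan, arginine or FMN aptamers are transcribed on-chip within common flanks. They are titrated with SNAP-549-labelled MS2 coat protein in RNA-MaP buffer (100 mM Tris pH 7.5, 80 mM KCl, 4 mM MgCl2), without ligand or with the indicated ligand. Median apparent KD per design.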

Setting [1] is: input ligand: theophylline 20 uM.
Setting [2] is: input ligand: theophylline 2 mM.
The mark [3] stands for this setting: input ligand: tryptophan 2.4 mM.

Consider “AAUAGCUUGAGGAUCACCCAAGUAAAAGAUACCAGAGUGAUGAUCCUCCCUUGGCAGCUUAACGCUGAUUGAUUACAAUCAGCGA”, for which the “apparent KD of MS2 coat protein” value is 46.5 nM (input ligand: arginine 13.2 mM); 33.8 nM (input ligand: none); 93.9 nM under setting [1]; 106 nM under setting [2]; 35.1 nM under setting [3].
For “AAUAUAAAAUAAAGAAAAUUUAUAUCUGAUACCAGACUCUCAUGGGUCCCUUGGCAGCAGUAACAUGAGGAUCACCCAUGUAUUA [JR_Nu_SSTheophyA_Sub026]”, the “apparent KD of MS2 coat protein” value runs as follows: (input ligand: arginine 13.2 mM) 67.7 nM; under setting [1], 70.6 nM; under setting [3], 123 nM.
For the sequence “AAUCGGACUCGUACAGCAUGUUGAGCGGAAGGAGCGGCGAAAGAGCCAGGUAGGUCGCCGCCGACAUGAGGAUCACCCAUGUACG [Orenti]”, the “apparent KD of MS2 coat protein” value by setting is: (input ligand: arginine 13.2 mM) 27.3 nM; (input ligand: none) 119 nM; under setting [1], 177 nM; under setting [2], 258 nM; under setting [3], 110 nM.
Taken in the same sequence, the figures for “AAUCGGAGAUGAAGGAGCGCGUACAUGAGGAUCACCCAUGUAUCAAAGCUUCUCCCGUGUAUGCAGGUAGGUCGCAUUUCCACGU [Ceriedan]” were 10.1 nM, 9.12 nM, 13 nM, 9.18 nM and 9.9 nM.
Take “AAUCGGGAUGGUCAAGGGUAUGCUAUAGAUACCAGUGCAGAGAAACACCCUUGGCAGCUGUGGAACAUGAGGAUCACCCAUGUAG [Theo A Ex t4]”: the “apparent KD of MS2 coat protein” value runs as follows: (input ligand: arginine 13.2 mM) 17.2 nM; (input ligand: none) 11.2 nM; under setting [1], 22.7 nM; under setting [2], 17.3 nM; under setting [3], 11.1 nM.
Taken in the same sequence, the figures for “AAUCGUAAGGCGGCCGCCACUACACAUGAGGAUCACCCAUGUCUCGCGGGCUUGCGUUGGGAUUGUAGGACCGGGCCAGUAAUAA [Exclusion - Tryptophan B (Freestyle 12)]” were 19.3 nM, 26.4 nM, 37.9 nM, 23.5 nM and 21.3 nM.
In the case of “AAUGUAUGGCACAUGAGGAUCACCCAUGUGCGAGGACCGGUACGGCCGCCACUCGGUCCUGGGAACUUAUUACUAUACAUUAAUG [XTryp A #18]”, the “apparent KD of MS2 coat protein” value runs as follows: (input ligand: arginine 13.2 mM) 11.9 nM; under setting [1], 16.9 nM; under setting [2], 13.1 nM.
With “AAUGUAUUCCACAUGAGGAUCACCCAUGUGCGAGGACCGGUACGGCCGCCACUCGGUGUUGGGAUCUGUUCUGAAUACAUUAAUG [XTryp A #23]”, the “apparent KD of MS2 coat protein” value by setting is: (input ligand: arginine 13.2 mM) 30.8 nM; under setting [1], 37.5 nM; under setting [2], 40.3 nM.
As to “AAUGUGAAGGCGGCCGCCACUGAUAAUAGACAUGAGGAUCACCCAUGUAUAAAUCCUCAAUAAGACAGGACCGGGCCAUCUACGU [#25 Exclusion Tryptophan B]”, the “apparent KD of MS2 coat protein” value turned out to be 59 nM (input ligand: arginine 13.2 mM), 134 nM under setting [1] and 122 nM under setting [2].
As to “AAUUAAUUAACCGAUACCAGCCAACCAAAACAUGAGGAUCACCCAUGUAAGAAGAAGGGUGGCCCUUGGCAGCGGUUAAUUAAUU”, the “apparent KD of MS2 coat protein” value was 31.4 nM (input ligand: arginine 13.2 mM), 16.7 nM under setting [1] and 30.5 nM under setting [3].
As to “AAUUAUCAGUCGGCCGCCACUGACACAUGAGGAUCACCCAUGUAACUUGGGAUAAAUUUAAUAAACAGGACCGGGACAAAGGCUA [JR_ExcTryptoB_Sub011]”, the “apparent KD of MS2 coat protein” value (input ligand: arginine 13.2 mM) is 36.6 nM, the “apparent KD of MS2 coat protein” value under setting [1] is 50.7 nM and the “apparent KD of MS2 coat protein” value under setting [2] was found to be 49.9 nM.
Regarding “AAUUAUUUCUCAAUUAUUUAAUCUUCAGAAGGAGCGUGAUGAUUCACAGGUAGGUCGCUGAUGACAUGAGGAUCACCCAUGUAUU [JR_SSArginiA_Sub003]”, the “apparent KD of MS2 coat protein” value amounted to 30.6 nM (input ligand: arginine 13.2 mM); 30.1 nM (input ligand: none); 31.1 nM under setting [1]; 29.1 nM under setting [2]; 27.5 nM under setting [3].
Take “AAUUCCGGGUCGGCCGCCACUGAUAUGGCGAGUCCUCGAACUUACAUGAGGAUCACCCAUGUAAACAGGACCGGGACCGCAUGGG [Exclusion Tryptophan B GF 23]”: the “apparent KD of MS2 coat protein” value stood at 16.3 nM (input ligand: arginine 13.2 mM), 28.4 nM under setting [1] and 20.4 nM under setting [2].
With “AAUUCCUAACAUGAGGAUCACCCAUGUGAAGGAGCGCGGAAUAACGCAGGUAGGUCGCACAUGGAACCGCUGCGAUAGCAGCAAA [MAT - Exclusion Arginine A - Mod of Eli - D29]”, the “apparent KD of MS2 coat protein” value runs as follows: (input ligand: arginine 13.2 mM) 8.66 nM; (input ligand: none) 14.4 nM; under setting [1], 13.3 nM; under setting [2], 14 nM; under setting [3], 12.5 nM.
As to “AAUUUAAACGGAAGGAGCGUCACUUAAUAUCAACAUGAGGAUCACCCAUGUAAGGGUUGUAGACAGGUAGGUCGCCGUCAUUUGA [JR_AAArginiB_Sub023]”, the “apparent KD of MS2 coat protein” value runs as follows: (input ligand: arginine 13.2 mM) 36.3 nM; (input ligand: none) 39.2 nM; under setting [1], 50.6 nM; under setting [2], 41.9 nM; under setting [3], 35.4 nM.
Taken in the same sequence, the figures for “AAUUUCGUAGGUAAAAGUUUAGAAACUGAAGGAGCGUGGUAUUACACAGGUAGGUCGCAGAUUUUACAUGAGGAUCACCCAUGUU [JR_SSArginiA_Sub008]” were 20.6 nM, 22.1 nM, 22 nM, 21.7 nM and 22.8 nM.
“ACAAGAGGGAUGGAUACCAGCGACAUGAGGAUCACCCAUGUAUGAGGAUCAGCCAUGUUAUGCCCUUGGCAGCCACGAACAUCAG [SSAMULLIN]”: the “apparent KD of MS2 coat protein” value turned out to be 27.5 nM (input ligand: arginine 13.2 mM); 21.2 nM (input ligand: none); 30.8 nM under setting [1]; 125 nM under setting [2]; 18.2 nM under setting [3].
